The target of data set [1] is T1, Cdc13p full-length (Saccharomyces cerevisiae, UniProt P32797 1-924).
T1 sequence: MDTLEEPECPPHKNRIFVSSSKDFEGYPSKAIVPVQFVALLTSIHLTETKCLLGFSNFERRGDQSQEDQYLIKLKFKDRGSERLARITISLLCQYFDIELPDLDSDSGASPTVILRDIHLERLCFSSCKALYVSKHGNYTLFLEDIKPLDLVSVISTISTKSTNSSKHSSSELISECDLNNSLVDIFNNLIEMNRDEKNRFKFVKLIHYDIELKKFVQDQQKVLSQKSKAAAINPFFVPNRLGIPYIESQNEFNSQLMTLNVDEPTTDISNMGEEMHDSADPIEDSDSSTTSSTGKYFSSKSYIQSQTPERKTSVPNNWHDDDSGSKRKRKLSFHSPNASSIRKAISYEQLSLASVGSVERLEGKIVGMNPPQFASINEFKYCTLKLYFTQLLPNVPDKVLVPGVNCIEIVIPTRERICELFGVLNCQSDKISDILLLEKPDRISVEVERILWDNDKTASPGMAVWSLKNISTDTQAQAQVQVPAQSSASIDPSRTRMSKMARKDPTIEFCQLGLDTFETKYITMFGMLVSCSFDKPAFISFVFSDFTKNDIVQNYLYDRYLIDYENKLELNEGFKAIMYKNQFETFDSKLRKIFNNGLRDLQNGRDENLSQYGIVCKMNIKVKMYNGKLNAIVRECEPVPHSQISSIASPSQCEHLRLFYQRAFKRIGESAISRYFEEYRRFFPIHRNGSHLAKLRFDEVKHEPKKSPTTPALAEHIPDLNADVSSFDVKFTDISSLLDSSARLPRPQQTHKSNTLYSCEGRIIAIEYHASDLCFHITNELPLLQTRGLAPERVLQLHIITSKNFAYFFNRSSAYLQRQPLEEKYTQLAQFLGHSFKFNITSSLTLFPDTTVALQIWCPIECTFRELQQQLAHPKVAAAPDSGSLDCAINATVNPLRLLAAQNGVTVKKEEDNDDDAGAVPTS
Put plainly: EMSA.

Data set [2] deals with T2, Cdc13(DBD) (Saccharomyces cerevisiae, UniProt P32797 497-694).
T2 sequence: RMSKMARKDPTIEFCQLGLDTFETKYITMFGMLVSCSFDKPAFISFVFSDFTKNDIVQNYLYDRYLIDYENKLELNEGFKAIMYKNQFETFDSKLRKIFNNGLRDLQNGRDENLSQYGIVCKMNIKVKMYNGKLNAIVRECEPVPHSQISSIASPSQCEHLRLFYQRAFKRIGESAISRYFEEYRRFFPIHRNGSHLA
Put plainly: filter binding.

The target in data set [3] is T1, Cdc13p full-length. Put plainly: footprinting.
For data set [4], the target named is T2, Cdc13(DBD). Put plainly: footprinting.
Data set [5] deals with T1, Cdc13p full-length. Put plainly: footprinting. The source holds these as a separate data set.
The target in data set [6] is T2, Cdc13(DBD). Put plainly: footprinting. The source holds these as a separate data set.

Where two headings read alike, the source gives them in different places.

For the molecule GTGTCTGTCTGAAAAAAAAAA (ssDNA) [TEL*-a10], the Kd with Cdc13p full-length [1] is 7.4 ± 2.4 nM; with Cdc13(DBD) [2], 380 ± 57 nM.

In the data set with Cdc13p full-length [1], GTGTCTGTCTGGTGTGGG (ssDNA) [TEL*-GTGTGGG] yielded an equilibrium dissociation constant (Kd) of 0.81 ± 0.15 nM.

On to GTGTCTGTCTGTGTGGG (ssDNA) [TEL*-TGTGGG], for which the binding result with Cdc13p full-length [3] and with Cdc13(DBD) [4] was “binds” throughout.

Turning to GTGTCTGTCTG (ssDNA) [TEL*], the Kd with Cdc13p full-length [1] was found to be 11 ± 3.8 nM; in the data set with Cdc13(DBD) [2], 620 ± 120 nM.

GTGTCTGTCTGGG (ssDNA) [TEL*-GG] came in with a Kd with Cdc13p full-length [1] of 0.81 ± 0.03 nM.

Consider GTGTGGGTGTG (ssDNA) [TEL], for which the equilibrium dissociation constant (Kd) with Cdc13p full-length [1] was determined as 0.43 ± 0.17 nM; with Cdc13(DBD) [2], 2.8 ± 0.6 nM.

As for GTGTCTGTCTGGGG (ssDNA) [TEL*-GGG], the Kd stood at 2.2 ± 0.7 nM with Cdc13p full-length [1] and 33 ± 5.7 nM with Cdc13(DBD) [2].

GTGTCTGTCTGGTGGG (ssDNA) [TEL*-GTGGG]: the binding result in the data set with Cdc13p full-length [5] and in the data set with Cdc13(DBD) [6] was “binds” throughout.
